We go through one molecule from US20090022687A1, “Novel Pharmaceuticals That Use Anti-HLA Antibodies” (Chugai Seiyaku Kabushiki Kaisha, priority 2005, published 2009).

Assay type in all cases: binding, human
The subject of data set [1] is HLA class I on HS-Sultan cells. The data set can be described thus: Cell surface expression analysis of HLA class I by flow cytometry. Particulars: B-lymphoblastic cells, FITC-labeled mAb. How it is done: (§1) Reactivity of 2D7 mAb in tumor cell lines and myeloma cells derived from multiple myeloma patients were assessed by flow cytometry.
(§2) The tumor cell lines used were prepared as follows. The myeloma cell line RPMI 8226, B lymphoblastic cell lines (IM-9, Raji, H S-Sultan, and Daudi), the T lymphoblastic cell line CEM, the chronic myeloid leukemia cell line K562, the lung adenocarcinoma cell line A549, the colon adenocarcinoma cell line COLO 201, and the gastric adenocarcinoma cell line MKN-1 were obtained from the Health Science Resources Bank (Osaka, Japan). The myeloma cell line U266-B1, the B lymphoblastic cell line ARH-77, the T-lymphoblastic cell line Jurkat the breast cancer cell line MCF-7, the hepatocellular carcinoma HepG2, the clear cell renal cell carcinoma Caki-2, and the malignant melanoma MeWo were obtained from the American Type Culture Collection (Manassas, Va.). The EBV-transformed B-cell line YN was a gift from Dr. Yasuhiko Nishioka (The University of Tokushima). These cell lines were cultured in an RPM-1640 medium (Sigma-Aldrich, St. Louis, Mo.) supplemented with 10% fetal calf serum (Gibco BRL, Grand Island, N.Y.) and penicillin (100 U/mL) under a humidified atmosphere of 5% CO2 at 37° C.
(§3) Cell surface expression analysis of HLA class I by flow cytometry was performed as follows using FITC-labeled 2D7 mAb or FITC-labeled anti-HLA-ABC common region mAb (Chemicon, San Diego, Calif.). The cells (5×10^5 cells) were washed twice with PBS, and then incubated on ice for 40 minutes with FITC-labeled 2D7 mAb or FITC-labeled anti-HLA-ABC common region mAb. MM patient-derived BMMCs were incubated on ice for 15 minutes with 2% γ globulin diluted in PBS, and stained with FITC-labeled 2D7 mAb and PE-labeled anti-CD38 mAb (BD Bioscience, San Jose, Calif.) for myeloma cell gating. Next, the cells were washed twice with PBS, and analyzed using an EPICS XL flow cytometer (Beckman Coulter, Japan). In several experiments, the cells were stimulated for 48 hours with IFNα or IFNγ prior to HLA class I expression analysis. HLA class I expression levels were evaluated as GeoMFI using the CellQuest software (BID Biosciences).

The subject of data set [2] is HLA class I on MeWo cells. The description is as above. The settings on record: malignant melanoma, FITC-labeled mAb. As for the experimental part:
as §1, §2, §3

The test system of data set [3] is HLA class I on COLO 201 cells. The description is as above. The settings on record: COLO 201, colon adenocarcinoma cells; FITC-labeled mAb. As for the experimental part:
as §1, §2, §3

Another data set deals with HLA class I on CEM cells. The data set is described as above. The settings on record: T-lymphoblastic cells, FITC-labeled mAb. As for the experimental part:
as §1, §2, §3

Data set [4] deals with HLA class I on Raji cells. The description is as above. Particulars: B-lymphoblastic cells, FITC-labeled mAb. How it is done: as §1, §2, §3
Data set [5] has as its system HLA class I on Daudi cells. The data set is described as above. Particulars: B-lymphoblastic cells, FITC-labeled mAb. How it is done:
as §1, §2, §3

Data set [6] has as its system HLA class I on HepG2 cells. Described as above. The settings on record: HepG2, hepatocellular carcinoma; FITC-labeled mAb. How it is done:
as §1, §2, §3

Data set [7] deals with HLA class I on K562 cells. Described as above. Particulars: K562, chronic myeloid leukemia cells; FITC-labeled mAb. How it is done:
as §1, §2, §3

A further data set has as its system HLA class I on YN cells. The data set is described as above. The settings on record: EBV-transformed B-cells, FITC-labeled mAb. As for the experimental part: as §1, §2, §3
The test system of data set [8] is HLA class I on MCF-7 cells. The description is as above. The settings on record: MCF-7, breast cancer cells; FITC-labeled mAb. How it is done:
as §1, §2, §3

Data set [9] deals with HLA class I on Jurkat cells. The data set is described as above. Particulars: T-lymphoblastic cells, FITC-labeled mAb. As for the experimental part: as §1, §2, §3
The test system of data set [10] is HLA class I on A549 cells. The data set is described as above. The settings on record: A549, lung adenocarcinoma cells; FITC-labeled mAb. How it is done:
as §1, §2, §3

Data set [11] deals with HLA class I on Caki-2 cells. The data set is described as above. The settings on record: Caki-2, clear cell renal cell carcinoma; FITC-labeled mAb. How it is done:
as §1, §2, §3

In data set [12] the test system is HLA class I on MKN-1 cells. Described as above. Particulars: MKN-1, gastric adenocarcinoma cells; FITC-labeled mAb. How it is done: as §1, §2, §3
In data set [13] the test system is HLA class I on U266 cells. The data set is described as above. Particulars: U266, myeloma cells; FITC-labeled mAb. As for the experimental part:
as §1, §2, §3

The subject of data set [14] is HLA class I on RPMI 8226 cells. Described as above. Particulars: RPMI 8226, myeloma cells; FITC-labeled mAb. How it is done:
as §1, §2, §3

Data set [15] relates to HLA class I on ARH77 cells. The description is as above. Particulars: ARH77, B-lymphoblastic cells; FITC-labeled mAb. How it is done: as §1, §2, §3
For the next data set, the system named is HLA-A on CD34+ cells. The data set can be described thus: Two-color flow cytometry of a peripheral blood stem cell collection. Particulars: CD34+ cells in a peripheral blood stem cell collection, n=3. A general note: A flow cytometer gives signals particle by particle.

B1: 2D7: monoclonal antibody obtained by immunizing human myeloma cells; recognizes HLA class I (HLA-A) (antibody, V domains shown)
VH: QVQLQQSGPELVKPGASVKMSCKASGYTFTDYFIHWVKQRPGQGLEWIGWIFPGDDTTDYNEKFRGKTTLTADKSSSTAYILLSSLTSEDSAMYFCVRSDDFDYWGQGTTLTVSS
VL: QIVLTQSPAIMSASPGEKVTITCSASSSVSYMHWFQQKPGTFPKLWIYSTSNLASGVPTRFSGSGSGTSYSLTISRMEAEDAATYYCQQRTSYPPTFGSGTKLEIK
Regarding B1, the “Expression (geometric mean fluorescence intensity)” value in data set [1] is listed as 285; in data set [2] it was 21; in data set [3], 105; in the data set with HLA class I on CEM cells, 72; in [4], 297; in data set [5], 2. Moreover, the “Expression (geometric mean fluorescence intensity)” value was found to be 33 in [6]; 11 in [7]; 804 in the data set on HLA class I on YN cells; 29 in data set [8]; 111 in [9]; 37 in [10]. Also, the “Expression (geometric mean fluorescence intensity)” value is listed as 13 in [11]; 49 in [12]; 340 in [13]; 509 in data set [14]; 3727 in [15]. In addition, in the data set on HLA-A on CD34+ cells, the “HLA-A expression, GeoMFI” value was determined as 109±16.
